One molecule from publication PMC4176340, “Structure and function of TatD exonuclease in DNA repair” can be followed below.

The target of the data set is T1, TatD (Escherichia coli K12, UniProt P27859 1-260).
T1 sequence: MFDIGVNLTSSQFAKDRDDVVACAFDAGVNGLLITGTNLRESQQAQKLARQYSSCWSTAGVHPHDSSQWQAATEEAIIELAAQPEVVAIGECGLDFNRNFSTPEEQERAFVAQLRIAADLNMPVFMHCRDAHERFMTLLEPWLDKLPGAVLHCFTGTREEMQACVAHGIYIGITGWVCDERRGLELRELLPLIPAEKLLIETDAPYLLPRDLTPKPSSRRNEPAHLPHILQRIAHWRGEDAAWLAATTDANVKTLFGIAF
As to the kind of experiment: X-ray crystallography 2.9 A; no metal ion identified; only trinucleotide GCT seen, weak density, occupancy 0.7, inactive conformation, likely cleaved product; Co-crystals: TatD 7-8 mg/ml in 10 mM MOPS, 250 mM NaCl, DNA at 1:1.2 (TatD:DNA); reservoir 4% Tacsmate pH 4, 12% PEG 3350; temperature not stated. Nuclease assays (turnover only) not listed. Particulars: protein: recombinant; tags: C-terminal His-tag (pET22b); single strand; only 5'-GCT-3' modelled (digestion product or ordered 3' end).

B1: 8-nt ssDNA used for co-crystallization (ssDNA)
DNA: GCTTAGCT
Take B1: the binding result is recorded as “binds”.
